Reference: the nanobody polyreactivity screen of Harvey et al. (2022)

test: yeast display, Sf9 membrane polyspecificity reagent, FACS + sequencing; frameworks hold sequencing errors
Summary of the method: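 Genes from sorted yeast were amplified by colony PCR, read by MiSeq 2 × 250 sequencing and filtered on CDR length. These cells carried a synthetic nanobody library in Saccharomyces cerevisiae BJ5465 and were sorted by FACS into low and high (top ~1%) gates on anti-HA and streptavidin fluorescence. Polyreactivity is labelled according to the gate of origin.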

Which “polyreactivity (PSR sort gate)” value does the source give for “QDQLVESGGGLVQAGGSLSLSCAASGRIFRGNAMGWYRQAPGKERELVASITWRGTSTYYADSVKGRFTISRDNAKNTVYLQMNSLKPEDTAVYYCAASLYSWGQGTEVTVSS” here?
The value was “high polyreactivity”.

For “QVQLVESGVGLDQAGGSLRLSCAASGFTFYSNAMGWYRQAPGKERELVAAITGRGGRTYYADSVKGRFTISRDNAKNTVYLLMNSLKPEDTAVYYCAAVYHVSTWGGRYYFRQGYDYWGQGTQVTVSS”, which “polyreactivity (PSR sort gate)” value is on record?
The value was “high polyreactivity”.

With “QVQLEESGGGLVQAGGSLRLSCAASGYTFGLYAMGWYRQAPRKERELVAAISSDASTNYADSVKGRFTISRDNAKNTVYLQMNSLKPEDTAVYYCAAAVKRGYAQSFISDGYGYWGQGTQVTVSS” as the sequence, how does the “polyreactivity (PSR sort gate)” value read?
Its value is “low polyreactivity”.

Which “polyreactivity (PSR sort gate)” value does the source give for “QVQLVESGGGLVQAGGSLRLSCAASGSISGYYAMGWSRQAPGKERELVASIRYTGARTYYADSVKGRFTISRDNAKNTVYLQMNSLKPEDTAVYYCNAYTRYPFYFVTSKYDYWGQGTQVTVSS” here?
Its value is “low polyreactivity”.

With “QVQLVESGGCLVQAGGSLRLSCAASGGTFGPNAKGSYRQAPGKERELVAAISWTTGRTYADSVKGRFTISRDNAKNTVYLQMNSLKPEDTAVYYCATRAYRLDPLQHDYWGQGTQVTVSS” as the sequence, how does the “polyreactivity (PSR sort gate)” value read?
Its value is “low polyreactivity”.

Which “polyreactivity (PSR sort gate)” value does the source give for “QVQLEESGGGLVQAGGSLRLSCAASVSIFGVNVMGWYRQAPGKERELVAAISSGGSTNYADSVKGRFTISGDNEKKTVYLLMISLKPDDTAVYFCIAGLGRLYDYWGQGTQVTVSS” here?
The value was “low polyreactivity”.

Which “polyreactivity (PSR sort gate)” value does the source give for “QVQLVESGGGLVQAGGSLRLTCAASGRIFSYYAMGWYRPAPGKERELVAAISSSGGSTYYADSVKGRFTISRDNAKNTVYLQMNSLKPEDTAVYDCRVYTRGEYYSWGQGTQVTVSS” here?
The value was “high polyreactivity”.

Which “polyreactivity (PSR sort gate)” value does the source give for “QVQLVESGGGLVQAGGRLRLSCAASGSTFWSKVMGWYRQAPGKERELVSAISYGGVTTSYADSVKGRFTISRDNAKNTVYLQMTSLKPEDTAVYYCATDYVGYYFYESDYWGQGTQVTVSS” here?
The value was “low polyreactivity”.

Which “polyreactivity (PSR sort gate)” value does the source give for “QVQLVESGGGLVQAGGSLRLSCAASGITFFTYGLGWYRQAPGKERELVASINWSGGTYYADSVKGRFTISRDKAKNTVYLQMNSLKPEDTAVYYCAAETHVESGSRDFYTEDYWGQGTQVTVSS” here?
The value was “low polyreactivity”.

With “QVQLVESGGGLVQAGGSLRLICAASGSNFWSYAMGWYRQAPGKERELVADITWSGGNTYADSVKGRFTISRDNAMNTVYLQMNSLKPEDTAVYYCAADPAHGTKWYVYPSHDDYWGQGTQVTVSS” as the sequence, how does the “polyreactivity (PSR sort gate)” value read?
The value was “low polyreactivity”.

With “QVQLVESGGGLVQAGGSLRLICAASGSTFWYYAMGWYRTAPGKDRELVAAITYGGGSTYYADSVKGRFTISRDNAKNTVYLQMNSLKPEDTAVYYCAAQSYDYWYDYDYWGQGTQVTVSS” as the sequence, how does the “polyreactivity (PSR sort gate)” value read?
Its value is “high polyreactivity”.

For “QLQLVESGVGLVQAGGSLRLSCAPSGFTSTYYAMAWYSQAPGKERELVAAITSSGTRTYYADSVKGRFTISRENAKNTVYLQMNSLKPEDTAVYYCNAALRKGMYYWGQGTQVTVSS”, which “polyreactivity (PSR sort gate)” value is on record?
Its value is “high polyreactivity”.

For “QVQLVESGGGLVQAGGSLRLSCAASGSIFTYYAMGWYRQAPGKERELVAAISLDGGSTYYADSVKGRFTISRDNAKNTVYLQMNSLKPEDTAVYYCAAYPTYPDEYWGQGTQVTVSS”, which “polyreactivity (PSR sort gate)” value is on record?
The value was “low polyreactivity”.

With “QVQLVESGGGLVQAGGSLRLSCAASGFISGKYAMGWNRQAPGKERELVATIRSGGSTNYADSVKGRFTISRDNAKNTVYLQMNSLKPEDTAVYYCAKRRGSRGVIYDYWGQGTQVTVSS” as the sequence, how does the “polyreactivity (PSR sort gate)” value read?
The value was “high polyreactivity”.

Which “polyreactivity (PSR sort gate)” value does the source give for “QVQLVESGGGLVQAGGSLRLSCAASGLTLTYYPMGLYRQAPGKERELVAAISSSGGSTYYADSVKGRFTISRDNAKNTVYLQMNSLKPEDSAVYDCAATRVSWTGRDDYWGQGTQVTVSS” here?
The value was “high polyreactivity”.

With “QVQLVESGGGLVQAGGSLRLSCAPSGSSKLMLWDGIDRRLGKKGSWLPLFVLVVLRNYADSVKGRFTISRDNANNTVYLQMNSLKPEDTAVYYCAATPIGSGGWGDYWGQGTQVTVSS” as the sequence, how does the “polyreactivity (PSR sort gate)” value read?
The value was “low polyreactivity”.

For “QVQLVESGGGLVQAGGSLRLSCAASGRIFYLNGMGWYRQAPGKERELLAAISSSDDSTYYADSVKGRFTISRDNAKNTVYLQMISLKPEDTAVYYCAAGYHHVQNYGDAYYWSELYSWGQGTQVTVSS”, which “polyreactivity (PSR sort gate)” value is on record?
The value was “low polyreactivity”.

With “QVQLVESGGGLVQAGGSLRLSCAASGSTLDFNAMGWYRQAPGKERELVATITYGVGKNYADSVKGRFTISRDNAKNTVYLQMNSLKPEDTAVYYCAANNWDYARYTYWYYSFLAYDYWGQGTQVTVSS” as the sequence, how does the “polyreactivity (PSR sort gate)” value read?
The value was “low polyreactivity”.

With “QVQLVESGRGLVQAGGSLRLSCAASGFTFSYYAKGWYRQAPGKEREFVAAISWSGGSTYYADSVKGRFTLSRDNAKNTVYLQMNSLKPEDTAVYNSAARSTGGSPGRRFTRGYDYWGQGTQVTVSS” as the sequence, how does the “polyreactivity (PSR sort gate)” value read?
Its value is “high polyreactivity”.

Which “polyreactivity (PSR sort gate)” value does the source give for “QVQLVESGGGLVQAGGSLRLSCAASGSIFVRYAMGWYRQAPGKEREFVAARTGNTDYADSVKGRFTISRDNAKNTVYLQMNSLKPEDTAVYYCARRPRSGTVSTPYYSLDYWGQGTQVTVSS” here?
The value was “low polyreactivity”.

With “QVQLVDSGGGLVKAGGSLRLSCAASGSTFDTNVMGWYRPAPGKERELVAAIDVSGGSTYYADSVKGRFTISRDNAKNYVYLQMYSLKPEDTAVFYSAAEDGLYGMDYWGQGSQVTVSS” as the sequence, how does the “polyreactivity (PSR sort gate)” value read?
The value was “low polyreactivity”.

Which “polyreactivity (PSR sort gate)” value does the source give for “QVQLVESGGGLVQAGGSLRLSCAASGIIFQFYAMGWYRQAPGKEREFVAAISARSGRTYYADSVKGRFTISRDNAKNTVYLQMNSLKPEDTAVYYCNTAYAYSGRYDYWGQGTQVTVSS” here?
Its value is “high polyreactivity”.

For “QVQLVESGGGLVQAGGSLRLSCAASGRTFTRYPMGWYRQAPGKERELVAAITRGGSTYADSVKGRFTISRDNAKNTVYLQMNSLKPEDTAVYYCAAYWGFYPWRAYPYDYWGQGTQVTVSS”, which “polyreactivity (PSR sort gate)” value is on record?
The value was “high polyreactivity”.

Which “polyreactivity (PSR sort gate)” value does the source give for “QVQLVESGGGLVQAGGSLRLSCAASGSTFRYYVMGWYRTAPGKERDLVAVISGSGGYTYYADSVKGRFTISRDNAKNTVYLQMNSLKPEDTAVYYCAAARKFIPGRGRTYDSWGQGTQVTVSS” here?
Its value is “high polyreactivity”.

With “QVQLVESGGGLVQAGGSLRLTCAASGRIFVPYVMGWFRQAPGKERELVAAISSSGGSTYYADSVKGRFTISRDNAKNTVYLQMNSLKPEDTAVYYCAKPYYFHEEDHWGQGTQVTVSS” as the sequence, how does the “polyreactivity (PSR sort gate)” value read?
Its value is “low polyreactivity”.

With “QVQLVESGGGLVQAGGSLRLSCAASGRIFFYNAMGWSRQAPGKERELVAAISARGDRTYYADSVKGRFTISRDNAKNTVYLQMNSLKPEDTAVYYCAADYYNYRYDYWGQGTQVTVSS” as the sequence, how does the “polyreactivity (PSR sort gate)” value read?
Its value is “high polyreactivity”.

With “QVQLVESGGGLVQAGGILRLSSAASGSTFTLNAMGWYRQEPGKERELVADITSGGGGTYYADSVKGRFTISRDNAKNTVYLQMNSLKPEDTAVYYCAADDFHSLLGYWYGLFDFWGQGTQVTVSS” as the sequence, how does the “polyreactivity (PSR sort gate)” value read?
Its value is “low polyreactivity”.

For “QVQLVESGGGLVQAGGSLRLSCAASGSIFNRYAMGWYRQAPGKERELVAAIRSGDNTNYADSVKGRFTISRDNAKNTVYLQMNSLKPEDTAVYYCNARYGGYRARYTYNYWGQGTQVTVSS”, which “polyreactivity (PSR sort gate)” value is on record?
Its value is “high polyreactivity”.

For “QVQLVESGGGLVQAGGSLRLSCAASGRIFGPYVMGWYRQAPGKERELVAAINRRGGSTYYADSVKGRFTISRDNAKNTVYLQMNSLKPEDTAVYYCAAKKATVVYRMEYWGQGTQVTVSS”, which “polyreactivity (PSR sort gate)” value is on record?
Its value is “high polyreactivity”.

Which “polyreactivity (PSR sort gate)” value does the source give for “QVQLVESGGGLVQAGGSLRLSCAASGSTFDWYAMGWYRQAPGKERELVAAISSDDSTYYADSVKGRFTISRDNAKNTVYLQMNSLKPEDTAVYYCAVDVYSDYGDYGYWGQGTQVTVSS” here?
The value was “low polyreactivity”.

Which “polyreactivity (PSR sort gate)” value does the source give for “QDQLVESGGGLVQAGGSLRLSCAASAFIFSSYAMGWYRQAPGKERELVAAITVRAGRTYYADSVKGRFTISRDNAKYTVYLEMNSLKPEDSAVYYCAADSGLWGYYYWGQGTQVTVSS” here?
Its value is “high polyreactivity”.
